Target: endogenous ErbB-4 of T47D human breast cancer cells (human) (UniProt Q15303)
Assay: cell-based or functional assay

Chain of UniProt Q15303 (Q15303 26-1308, stated change not applied): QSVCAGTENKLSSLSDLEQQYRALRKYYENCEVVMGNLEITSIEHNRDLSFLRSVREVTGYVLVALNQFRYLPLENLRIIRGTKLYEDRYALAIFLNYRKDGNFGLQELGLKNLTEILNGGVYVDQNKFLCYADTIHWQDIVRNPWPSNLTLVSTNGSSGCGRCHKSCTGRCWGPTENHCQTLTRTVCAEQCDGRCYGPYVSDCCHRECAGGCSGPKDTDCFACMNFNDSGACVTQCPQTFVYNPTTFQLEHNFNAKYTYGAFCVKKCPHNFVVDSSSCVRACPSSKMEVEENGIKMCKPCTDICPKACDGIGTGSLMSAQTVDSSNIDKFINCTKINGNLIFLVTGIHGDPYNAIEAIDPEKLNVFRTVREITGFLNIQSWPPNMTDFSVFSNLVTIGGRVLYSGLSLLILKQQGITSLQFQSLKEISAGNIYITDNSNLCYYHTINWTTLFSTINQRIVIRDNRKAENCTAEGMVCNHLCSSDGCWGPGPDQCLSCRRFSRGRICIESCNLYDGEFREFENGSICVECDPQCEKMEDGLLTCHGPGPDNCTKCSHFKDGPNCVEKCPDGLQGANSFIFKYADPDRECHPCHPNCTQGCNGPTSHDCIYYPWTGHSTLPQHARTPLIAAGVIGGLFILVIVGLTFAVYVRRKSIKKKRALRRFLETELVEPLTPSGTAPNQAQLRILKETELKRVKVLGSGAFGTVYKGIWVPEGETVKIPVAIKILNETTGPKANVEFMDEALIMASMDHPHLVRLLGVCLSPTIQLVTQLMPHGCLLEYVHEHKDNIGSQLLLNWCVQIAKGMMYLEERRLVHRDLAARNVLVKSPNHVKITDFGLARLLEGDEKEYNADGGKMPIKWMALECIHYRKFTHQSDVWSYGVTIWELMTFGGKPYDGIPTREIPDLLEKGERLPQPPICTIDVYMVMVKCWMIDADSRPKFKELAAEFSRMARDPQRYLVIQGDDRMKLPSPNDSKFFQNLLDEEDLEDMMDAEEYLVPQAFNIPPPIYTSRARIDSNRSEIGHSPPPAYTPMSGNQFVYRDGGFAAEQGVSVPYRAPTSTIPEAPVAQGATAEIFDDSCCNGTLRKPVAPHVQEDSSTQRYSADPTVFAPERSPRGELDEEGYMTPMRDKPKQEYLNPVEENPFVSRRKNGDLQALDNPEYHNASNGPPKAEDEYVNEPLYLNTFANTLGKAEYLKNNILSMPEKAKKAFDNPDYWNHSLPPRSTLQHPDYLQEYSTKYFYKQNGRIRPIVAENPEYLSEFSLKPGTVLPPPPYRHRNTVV

Question: Which results are given for “NRG1-α (from UniProt Q02297 177-241) (ligand)”?
Answer: colony formation in soft agar, T47D wild type cells treated with neuregulin (FIG. 13): 11 fold; colony formation in soft agar, ribozyme transfected T47D cells (T47D/Rz, ErbB-4 down-regulated): 2.5 fold

From patent US6566104
